Measurements reported in the Human Domainome abundance scans (Beltran et al. 2025).
± gives the uncertainty stated by the source.

B1: Peroxisome proliferator-activated receptor delta, residues 71 to 145; numbered along this chain, Q03181 (parent)
chain: NMECRVCGDKASGFHYGVHACEGCKGFFRRTIRMKLEYEKCERSCKIQKKNRNKCQYCRFQKCLALGMSHNAIRF

Variants of: B1
Assay: abundance fitness (aPCA) (normalised: wild type 0, dead -1); higher = more abundant; growth selection in yeast, the domain comes from the species named
Details: Homo sapiens

| Variant | abundance fitness |
| --- | --- |
| NMECRVCGDKASYFHYGVHACEGCKGFFRRTIRMKLEYEKCERSCKIQKKNRNKCQYCRFQKCLALGMSHNAIRF [G13Y] | -0.385 ± 0.096 |
| NMECRVCGDKASLFHYGVHACEGCKGFFRRTIRMKLEYEKCERSCKIQKKNRNKCQYCRFQKCLALGMSHNAIRF [G13L] | -0.48 ± 0.055 |
| NMECRVCGDKASRFHYGVHACEGCKGFFRRTIRMKLEYEKCERSCKIQKKNRNKCQYCRFQKCLALGMSHNAIRF [G13R] | -0.427 ± 0.045 |
| NMECRVCGDKASEFHYGVHACEGCKGFFRRTIRMKLEYEKCERSCKIQKKNRNKCQYCRFQKCLALGMSHNAIRF [G13E] | -0.274 ± 0.052 |
| NMECRVCGDKASSFHYGVHACEGCKGFFRRTIRMKLEYEKCERSCKIQKKNRNKCQYCRFQKCLALGMSHNAIRF [G13S] | -0.212 ± 0.048 |
| NMECRVCGDKASIFHYGVHACEGCKGFFRRTIRMKLEYEKCERSCKIQKKNRNKCQYCRFQKCLALGMSHNAIRF [G13I] | -0.324 ± 0.13 |
| NMECRVCGDKASAFHYGVHACEGCKGFFRRTIRMKLEYEKCERSCKIQKKNRNKCQYCRFQKCLALGMSHNAIRF [G13A] | -0.239 ± 0.044 |
| NMECRVCGDKASCFHYGVHACEGCKGFFRRTIRMKLEYEKCERSCKIQKKNRNKCQYCRFQKCLALGMSHNAIRF [G13C] | -0.596 ± 0.12 |
| NMECRVCGDKASMFHYGVHACEGCKGFFRRTIRMKLEYEKCERSCKIQKKNRNKCQYCRFQKCLALGMSHNAIRF [G13M] | -0.431 ± 0.079 |
| NMECRVCGDKASVFHYGVHACEGCKGFFRRTIRMKLEYEKCERSCKIQKKNRNKCQYCRFQKCLALGMSHNAIRF [G13V] | -0.353 ± 0.049 |
| NMECRVCGDKASNFHYGVHACEGCKGFFRRTIRMKLEYEKCERSCKIQKKNRNKCQYCRFQKCLALGMSHNAIRF [G13N] | -0.01 ± 0.069 |
| NMECRVCGDKASWFHYGVHACEGCKGFFRRTIRMKLEYEKCERSCKIQKKNRNKCQYCRFQKCLALGMSHNAIRF [G13W] | -0.708 ± 0.097 |
| NMECRVCGDKASQFHYGVHACEGCKGFFRRTIRMKLEYEKCERSCKIQKKNRNKCQYCRFQKCLALGMSHNAIRF [G13Q] | -0.322 ± 0.077 |
| NMECRVCGDKASPFHYGVHACEGCKGFFRRTIRMKLEYEKCERSCKIQKKNRNKCQYCRFQKCLALGMSHNAIRF [G13P] | -0.363 ± 0.079 |
| NMECRVCGDKASHFHYGVHACEGCKGFFRRTIRMKLEYEKCERSCKIQKKNRNKCQYCRFQKCLALGMSHNAIRF [G13H] | -0.545 ± 0.12 |
| NMECRVCGDKASDFHYGVHACEGCKGFFRRTIRMKLEYEKCERSCKIQKKNRNKCQYCRFQKCLALGMSHNAIRF [G13D] | -0.103 ± 0.056 |
| NMECRVCGDKASGFHDGVHACEGCKGFFRRTIRMKLEYEKCERSCKIQKKNRNKCQYCRFQKCLALGMSHNAIRF [Y16D] | 0.126 ± 0.056 |
| NMECRVCGDKASGFHAGVHACEGCKGFFRRTIRMKLEYEKCERSCKIQKKNRNKCQYCRFQKCLALGMSHNAIRF [Y16A] | -0.065 ± 0.042 |
| NMECRVCGDKASGFIYGVHACEGCKGFFRRTIRMKLEYEKCERSCKIQKKNRNKCQYCRFQKCLALGMSHNAIRF [H15I] | -0.154 ± 0.076 |

| Variant | abundance fitness |
| --- | --- |
| NMECRVCGDKASGFMYGVHACEGCKGFFRRTIRMKLEYEKCERSCKIQKKNRNKCQYCRFQKCLALGMSHNAIRF [H15M] | -0.125 ± 0.05 |
| NMECRVCGDKASGFSYGVHACEGCKGFFRRTIRMKLEYEKCERSCKIQKKNRNKCQYCRFQKCLALGMSHNAIRF [H15S] | -0.117 ± 0.041 |
| NMECRVCGDKASGFEYGVHACEGCKGFFRRTIRMKLEYEKCERSCKIQKKNRNKCQYCRFQKCLALGMSHNAIRF [H15E] | -0.025 ± 0.045 |
| NMECRVCGDKASGFNYGVHACEGCKGFFRRTIRMKLEYEKCERSCKIQKKNRNKCQYCRFQKCLALGMSHNAIRF [H15N] | -0.341 ± 0.12 |
| NMECRVCGDKASGFRYGVHACEGCKGFFRRTIRMKLEYEKCERSCKIQKKNRNKCQYCRFQKCLALGMSHNAIRF [H15R] | -0.595 ± 0.057 |
| NMECRVCGDKASGFDYGVHACEGCKGFFRRTIRMKLEYEKCERSCKIQKKNRNKCQYCRFQKCLALGMSHNAIRF [H15D] | -0.027 ± 0.05 |
| NMECRVCGDKASGFTYGVHACEGCKGFFRRTIRMKLEYEKCERSCKIQKKNRNKCQYCRFQKCLALGMSHNAIRF [H15T] | -0.174 ± 0.047 |
| NMECRVCGDKASGFCYGVHACEGCKGFFRRTIRMKLEYEKCERSCKIQKKNRNKCQYCRFQKCLALGMSHNAIRF [H15C] | -0.044 ± 0.066 |
| NMECRVCGDKASGFYYGVHACEGCKGFFRRTIRMKLEYEKCERSCKIQKKNRNKCQYCRFQKCLALGMSHNAIRF [H15Y] | -0.088 ± 0.061 |
| NMECRVCGDKASGFGYGVHACEGCKGFFRRTIRMKLEYEKCERSCKIQKKNRNKCQYCRFQKCLALGMSHNAIRF [H15G] | -0.285 ± 0.039 |
| NMECRVCGDKASGFAYGVHACEGCKGFFRRTIRMKLEYEKCERSCKIQKKNRNKCQYCRFQKCLALGMSHNAIRF [H15A] | -0.116 ± 0.042 |
| NMECRVCGDKASGFKYGVHACEGCKGFFRRTIRMKLEYEKCERSCKIQKKNRNKCQYCRFQKCLALGMSHNAIRF [H15K] | -0.61 ± 0.11 |
| NMECRVCGDKASGFVYGVHACEGCKGFFRRTIRMKLEYEKCERSCKIQKKNRNKCQYCRFQKCLALGMSHNAIRF [H15V] | -0.238 ± 0.043 |
| NMECRVCGDKASGFQYGVHACEGCKGFFRRTIRMKLEYEKCERSCKIQKKNRNKCQYCRFQKCLALGMSHNAIRF [H15Q] | -0.188 ± 0.066 |
| NMECRVCGDKASGFFYGVHACEGCKGFFRRTIRMKLEYEKCERSCKIQKKNRNKCQYCRFQKCLALGMSHNAIRF [H15F] | -0.006 ± 0.069 |
| NMECRVCGDKASGFPYGVHACEGCKGFFRRTIRMKLEYEKCERSCKIQKKNRNKCQYCRFQKCLALGMSHNAIRF [H15P] | -0.242 ± 0.055 |
| NMECRVCGDKWSGFHYGVHACEGCKGFFRRTIRMKLEYEKCERSCKIQKKNRNKCQYCRFQKCLALGMSHNAIRF [A11W] | -0.706 ± 0.092 |
| NMECRVCGDKYSGFHYGVHACEGCKGFFRRTIRMKLEYEKCERSCKIQKKNRNKCQYCRFQKCLALGMSHNAIRF [A11Y] | -0.31 ± 0.083 |
